Reference: patent US20210189007A1 (BOARD OF REGENTS OF THE UNIVERSITY OF OKLAHOMA, published 2021)

Biological target: T1, DCLK1 isoform 4 purified protein (human, UniProt O15075 314-740)
T1 construct: Purified protein used in Western blot and ELISA; also called Doublecortin-like kinase 1 isoform 4; DCLK1 purified protein
T1 sequence: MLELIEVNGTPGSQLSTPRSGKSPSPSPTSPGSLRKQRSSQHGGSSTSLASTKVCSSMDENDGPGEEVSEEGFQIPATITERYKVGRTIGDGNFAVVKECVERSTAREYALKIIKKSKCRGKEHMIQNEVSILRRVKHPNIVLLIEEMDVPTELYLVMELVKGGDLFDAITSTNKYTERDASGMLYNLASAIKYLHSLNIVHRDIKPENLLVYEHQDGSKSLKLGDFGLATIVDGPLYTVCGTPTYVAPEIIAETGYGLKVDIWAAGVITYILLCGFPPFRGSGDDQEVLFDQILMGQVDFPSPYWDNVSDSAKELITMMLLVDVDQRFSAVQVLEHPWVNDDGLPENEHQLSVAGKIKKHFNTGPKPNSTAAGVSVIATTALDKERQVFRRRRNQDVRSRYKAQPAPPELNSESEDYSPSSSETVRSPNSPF
Assay: Western blot on purified protein

- binding result: binds
B1: CBT-15A monoclonal antibody (antibody, V domains shown)
VH: DVKLVESGGGLVKLGGSLKLSCAASGFTFSSYYMSWVRQTPEKRLELVAAINSNGGSTYYPDTVKGRFTISRDNAKNTLYLQMSSLKSEDTALYYCARHGGNYWYFDVWGAGTTVTVSS
VL: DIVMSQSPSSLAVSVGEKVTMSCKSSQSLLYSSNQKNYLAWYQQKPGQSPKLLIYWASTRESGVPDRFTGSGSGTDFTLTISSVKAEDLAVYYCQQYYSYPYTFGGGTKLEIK
notes: Mouse hybridoma antibody raised against KLH-linked immunogen no; also called CBT-15A mAB; CBT-15 mAB (A)
